Experimental data taken from publication PMC11839083 (bioRxiv, 2025).

Target: the molecule itself
Assay: cryo-EM structure

B1: C1-GS4 (Aae NtrC1 residues 121–387 with GSGSLGQYL at the C-terminus) (other)
chain: LRKENELLRREKDLKEEEYVFESPKMKEILEKIKKISCAECPVLITGESGVGKEVVARLIHKLSDRSKEPFVALNVASIPRDIFEAELFGYEKGAFTGAVSSKEGFFELADGGTLFLDEIGELSLEAQAKLLRVIESGKFYRLGGRKEIEVNVRILAATNRNIKELVKEGKFREDLYYRLGVIEIEIPPLRERKEDIIPLANHFLKKFSRKYAKEVEGFTKSAQELLLSYPWYGNVRELKNVIERAVLFSEGKFIDRGELSCLVNSKGSGSLGQYL
- binding result: binds
